# Experimental data reported in IntAct's records for PubMed 16418270.
# B1: Ribonuclease P protein component 2 (Pyrococcus furiosus), Q8U151 (parent)
# chain: MSERPKTLPPTLRDKKRYIAFKVISENQFNKDEIKEAIWNACLRTLGELGTAKAKPWLIKFDETTQTGIIRCDRNHVYDVIFSLTLVSDINGNKAIIKVLGVSGTIKRLKRKFLSQFGWR
# partner: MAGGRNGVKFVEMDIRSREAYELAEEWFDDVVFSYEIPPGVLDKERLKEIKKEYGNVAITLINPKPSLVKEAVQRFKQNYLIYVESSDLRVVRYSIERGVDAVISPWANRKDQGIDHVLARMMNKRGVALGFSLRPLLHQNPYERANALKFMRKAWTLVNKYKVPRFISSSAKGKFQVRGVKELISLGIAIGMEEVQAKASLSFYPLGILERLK
# Variants of: B1
# Conditions: with rnp3_pyrfu rnp3, Q8TZS0
row,Variant,effect of a mutation on the interaction
1,MSERPKTLPPTLRDKKRYIAFKVISENQFNKDEIKEAIWNACLRTLGELGTAKAKPWLIKFDETTQTGIIRSDRNHVYDVIFSLTLVSDINGNKAIIKVLGVSGTIKRLKRKFLSQFGWR [C72S],decreasing interaction
